Assay results published in patent publication US20180292412A1 (JULIUS MAXIMILIANS UNIVERSIT T W RZBURG, published 2018).

How the values were obtained:
[1] = molecular target: T1, recombinant mature human GDF-15 protein (as expressed in Baculovirus-transfected HighFive insect cells) (human, UniProt Q99988 197-308); experiment: SPR (Biorad ProteOn XPR36, GLC chip), GDF-15 from insect cells immobilised, antibody as analyte, 25° C., 1:1 Langmuir model
T1 construct: Immobilised by amine coupling on the SPR chip; also called recombinant human GDF-15; GDF-15 derived from insect cell expression
T1 sequence: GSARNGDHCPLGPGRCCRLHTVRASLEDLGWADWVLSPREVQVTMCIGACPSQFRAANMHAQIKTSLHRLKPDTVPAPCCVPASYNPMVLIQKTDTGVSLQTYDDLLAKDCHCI
From the text: (§1) For preparing the biosensors recombinant mature human GDF-15 protein was immobilized on flow cells 1 and 2. On one flow cell recombinant GDF-15 derived from Baculvirus-transfected insect cells (HighFive insect cells) and on the other recombinant protein derived from expression in E. coli was used. The GLC sensor chip was activated using Sulfo-NHS (N-Hydroxysulfosuccinimide) and EDC (1-Ethyl-3-[3-dimethylaminopropyl]carbodiimide hydrochloride) (Biorad ProteOn Amine Coupling Kit) according to the manufacturer's recommendation, the sensor surface was subsequently loaded with the proteins up to a density of about 600 RU (1 Ru=1 pg mm⁻²). The non-reacted coupling groups were then quenched by perfusion with 1M ethanolamine pH 8.5 and the biosensor was equilibrated by perfusing the chip with running buffer ([…], 150 mM NaCl, 3.4 mM EDTA, 0.005% Tween-20, pH 7.4, referred to as HBS150). […] The resulting sensogram was analyzed using the software ProteOn Manager version 3.0. […] For the association rate constant a value of 5.4±0.06×10⁵ M⁻¹s⁻¹ (kₒₙ) and for the dissociation rate constant a value of 4.3±0.03×10⁻⁴ s⁻¹ (koff) could be determined (values are for the interaction of anti-human GDF-15 mAb-B1-23 with GDF-15 derived from insect cell expression).

[2] = molecular target: T2, recombinant mature human GDF-15 protein derived from expression in E. coli (human, UniProt Q99988 195-308); experiment: SPR (Biorad ProteOn XPR36), GDF-15 from E. coli immobilised, antibody as analyte
T2 construct: mature; also called GDF-15 derived from E. coli expression
T2 sequence (looked up): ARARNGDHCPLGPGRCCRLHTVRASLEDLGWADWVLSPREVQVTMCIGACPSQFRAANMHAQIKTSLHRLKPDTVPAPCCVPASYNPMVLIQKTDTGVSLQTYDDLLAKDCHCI
From the text: as §1, with “The” for “For preparing the biosensors recombinant mature human GDF-15 protein was immobilized on flow cells 1 and 2. On one flow cell recombinant GDF-15 derived from Baculvirus-transfected insect cells (HighFive insect cells) and on the other recombinant protein derived from expression in E. coli was used. The”, “HBS150). As controls two flow cells were used, one empty with no protein coupled and one coupled with an non-physiological protein partner (human Interleukin-5), which was immobilized using the same coupling chemistry and the same coupling density. For interaction measurements anti-human GDF-15 mAb-B1-23 was dissolved in HBS150 and used in six different concentrations as analyte (concentration: 0.4, 0.8, 3, 12, 49 und 98 nM).” for “HBS150).”

[3] = molecular target: T1, recombinant mature human GDF-15 protein …; experiment: SPR (Biorad ProteOn XPR36), calculated as koff/kon
From the text: as §1

B1: monoclonal anti-human GDF-15 mAb-B1-23 (antibody, IgG2a, V domains shown, not shown: a dimerising Fc or GST)
VH: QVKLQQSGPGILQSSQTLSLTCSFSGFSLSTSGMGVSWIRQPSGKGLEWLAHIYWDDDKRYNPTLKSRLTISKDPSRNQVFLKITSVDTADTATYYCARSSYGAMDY
VL: DIVLTQSPKFMSTSVGDRVSVTCKASQNVGTNVAWFLQKPGQSPKALIYSASYRYSGVPDRFTGSGSGTDFTLTISNVQSEDLAEYFCQQYNNFPYT
notes: Mouse hybridoma antibody (DSM ACC3142), IgG2a, kappa chain; FR4 and the constant regions are missing; also called antibody B1-23; monoclonal mouse antibody GDF-15
For B1, the koff [1] was 0.00043 s⁻¹, the kon [1] was 540000 M⁻¹ s⁻¹ and the “fold difference of affinity against GDF-15 derived from insect cells” value [2] was less than 2 fold. For the same binder, the Kd [3] was roughly 0.79 nM.
